Assay results as given in US7943731, “Dimerizing peptides” (Massachusetts Institute of Technology).

Tests used:
[1] = biological target: T1, fusion peptide 3-Zif12 (synthetic 15-mer + Zif268, UniProt P08046 P08046:335-391); assay: EMSA; little or no activity with single site; details: tags: N-terminal Met-Ala, leader peptide; chain copies: 2 stated; label: 32P end-label (Klenow)
Protocol: (§1) Figure 4B: FIG. 4(A) Sequences of peptide extensions (SEQ ID NOS: 24-29) isolated from the initial selection. Numbers in parentheses give the frequency of occurrences among the 45 clones sequenced. The clones for peptide 2 included a Glu-21-to-Asp mutation in the zinc finger region that may have been partially responsible for the affinity of this peptide. (B) Gel mobility-shift assays using purified fusion peptides 1, 3, and 5. Protein (2.5 µM, 250 nM, 25 nM, 250 pM, and no protein) was incubated with DNA containing either an inverted repeat of Zif12 sites or a single Zif12 site and then electrophoresed through native polyacrylamide gels. The reduced mobility of the inverted repeat probe in the presence of protein indicates the formation of protein-DNA complexes. Similar results were obtained with fusion peptides 2 and 6. Binding of peptide 4 depend on disulfide bond formation.
(§2) To assess their DNA-binding activity, peptides obtained in these initial selections were expressed in *Escherichia coli* (as fusions with Zif12), purified, and tested in gel mobility-shift assays (FIG. 4B). These fusion peptides bound specifically to duplex DNA containing an inverted repeat of the Zif12 sites, showing little or no activity with DNA containing a single site. The complexes with the inverted-repeat site all migrated similarly in the gel, with a mobility for the complexes that was consistent with the formation of dimers.

[2] = biological target: T2, fusion peptide 1-Zif12 (synthetic 15-mer + Zif268, UniProt P08046 P08046:335-391); assay: EMSA; little or no activity with single site; details: tags: N-terminal Met-Ala, leader peptide; chain copies: 2 stated; label: 32P end-label (Klenow)
Protocol: as §1, §2

[3] = biological target: T3, fusion peptide 5-Zif12 (synthetic 15-mer + Zif268, UniProt P08046 P08046:335-391); assay: EMSA; little or no activity with single site; details: tags: N-terminal Met-Ala, leader peptide; chain copies: 2 stated; label: 32P end-label (Klenow)
Protocol: as §1, §2

[4] = biological target: T4, fusion peptide 6-Zif12 (synthetic 15-mer + Zif268, UniProt P08046 P08046:335-391); assay: EMSA; little or no activity with single site; details: tags: N-terminal Met-Ala, leader peptide; chain copies: 2 stated; label: 32P end-label (Klenow)
Protocol: as §1, §2

[5] = biological target: Zif12 (fingers 1-2 of Zif268) (UniProt P08046 P08046:333-390); assay: EMSA; no shift under these conditions; details: tags: Gly-Ser dipeptide left at N terminus after GST removal; chain copies: 2 inferred (essentially noncooperative, one per half-site); label: 32P end-label (Klenow)
Protocol: as §1
as §2, with “The complexes with the inverted-repeat site all migrated similarly in the gel, with a mobility for the complexes that was consistent with the formation of dimers.” left out

[6] = biological target: T4, fusion peptide 6-Zif12; assay: EMSA; similar results to peptides 1, 3, 5; details: tags: N-terminal Met-Ala, leader peptide; chain copies: 2 stated; label: 32P end-label (Klenow)
Protocol: as §1
as §2, with “The complexes with the inverted-repeat site all migrated similarly in the gel, with a mobility for the complexes that was consistent with the formation of dimers.” left out

[7] = biological target: T1, fusion peptide 3-Zif12; assay: EMSA; up to 2.5 uM protein; details: tags: N-terminal Met-Ala, leader peptide; chain copies: 2 stated; label: 32P end-label (Klenow)
Protocol: as §1, §2

[8] = biological target: T2, fusion peptide 1-Zif12; assay: EMSA; up to 2.5 uM protein; details: tags: N-terminal Met-Ala, leader peptide; chain copies: 2 stated; label: 32P end-label (Klenow)
Protocol: as §1, §2

[9] = biological target: T3, fusion peptide 5-Zif12; assay: EMSA; up to 2.5 uM protein; details: tags: N-terminal Met-Ala, leader peptide; chain copies: 2 stated; label: 32P end-label (Klenow)
Protocol: as §1, §2

T4 sequence (P08046 335-391, one chain of several): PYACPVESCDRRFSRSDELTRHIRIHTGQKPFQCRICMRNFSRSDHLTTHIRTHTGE
T1 sequence (P08046 335-391, one chain of several): as above
T2 sequence (P08046 335-391, one chain of several): as above
T3 sequence (P08046 335-391, one chain of several): as above
Zif12 (fingers 1-2 of Zif268), sequence (P08046 333-390, one chain of several): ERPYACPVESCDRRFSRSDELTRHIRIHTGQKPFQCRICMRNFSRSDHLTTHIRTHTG

Binder	binding result [1]	binding result [2]	binding result [3]	binding result [4]	binding result [5]	binding result [6]	binding result [7]	binding result [8]	binding result [9]
single Zif12 site mutant duplex (dsDNA, [none]) DNA 1: GGTTGCAGTGGGCGTATGCTCAGTACTTGAACGTAACG DNA 2: CGTTACGTTCAAGTACTGAGCATACGCCCACTGCAACC	no binding	no binding	no binding	no binding	no binding	–	–	–	–
phage-selection target duplex, inverted repeat (dsDNA) DNA 1: GGTTGCAGTGGGCGCGCCCACAGTACTTGAACGTAACG DNA 2: CGTTACGTTCAAGTACTGTGGGCGCGCCCACTGCAACC	–	–	–	–	no binding	binds	binds	binds	binds
